Results reported in US20150329644A1 (BRIGHAM AND WOMEN S HOSPITAL, published 2015).

Biological target: T1, Human LSD2 (residues 51-822) with N-terminal extra residues GPGS, as used for co-crystallization (human, UniProt Q8NB78 51-822)
T1 construct: range 51-822; Construct of the LSD2-NPAC (PDB 4GUT) and LSD2-NPAC-H3K4M (PDB 4GUS, 4GUR) co-crystals; also called KDM1b; AOF1
T1 sequence: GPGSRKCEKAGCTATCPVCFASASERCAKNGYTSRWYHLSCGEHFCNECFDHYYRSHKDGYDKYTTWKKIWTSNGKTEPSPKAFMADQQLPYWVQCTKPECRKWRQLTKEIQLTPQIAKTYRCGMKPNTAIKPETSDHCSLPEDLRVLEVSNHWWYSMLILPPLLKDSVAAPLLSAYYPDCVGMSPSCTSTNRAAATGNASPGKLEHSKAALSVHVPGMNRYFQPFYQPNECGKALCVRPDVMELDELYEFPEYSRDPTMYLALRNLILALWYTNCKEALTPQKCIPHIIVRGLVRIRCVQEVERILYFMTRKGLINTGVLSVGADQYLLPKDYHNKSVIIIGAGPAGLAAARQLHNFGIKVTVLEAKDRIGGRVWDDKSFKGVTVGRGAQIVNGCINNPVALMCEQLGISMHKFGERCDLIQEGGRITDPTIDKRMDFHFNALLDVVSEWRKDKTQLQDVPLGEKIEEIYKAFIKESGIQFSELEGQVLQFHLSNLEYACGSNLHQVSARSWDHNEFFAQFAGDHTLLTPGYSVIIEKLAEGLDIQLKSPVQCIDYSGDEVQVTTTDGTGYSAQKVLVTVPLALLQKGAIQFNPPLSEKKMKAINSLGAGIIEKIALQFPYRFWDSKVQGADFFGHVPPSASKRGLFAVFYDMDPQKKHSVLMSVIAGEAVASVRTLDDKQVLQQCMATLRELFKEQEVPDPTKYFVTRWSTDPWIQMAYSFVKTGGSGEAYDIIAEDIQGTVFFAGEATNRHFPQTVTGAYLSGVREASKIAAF
Test: co-crystal structures of LSD2 with the NPAC linker region (residues 152-268)
Method: Crystallization and Data Collection. All crystals were grown using the hanging-drop vapor diffusion method. […] All crystals were examined on X8 Proteum system (Bruker AXS) and data sets were collected on beamline BL17U at Shanghai Synchrotron Radiation Facility (Shanghai, China).

binding result: binds
B1: NPAC linker region (residues 152-268), as used for co-crystallization (other)
chain: SERGSKSPLKRAQEQSPRKRGRPPKDEKDLTIPESSTVKGMMAGPMAAFKWQPTASEPVKDADPHFHHFLLSQTEKPAVCYQAITKKLKICEEETGSTSIQAADSTAVNGSITPTDK
notes: Expressed with His6 and GST tags that were removed by 3C protease
